First the molecules themselves.
B1: Protein BRASSINOSTEROID … 1 (Arabidopsis thaliana (Mouse-ear cress)), O22476 (parent)
chain: MKTFSSFFLSVTTLFFFSFFSLSFQASPSQSLYREIHQLISFKDVLPDKNLLPDWSSNKNPCTFDGVTCRDDKVTSIDLSSKPLNVGFSAVSSSLLSLTGLESLFLSNSHINGSVSGFKCSASLTSLDLSRNSLSGPVTTLTSLGSCSGLKFLNVSSNTLDFPGKVSGGLKLNSLEVLDLSANSISGANVVGWVLSDGCGELKHLAISGNKISGDVDVSRCVNLEFLDVSSNNFSTGIPFLGDCSALQHLDISGNKLSGDFSRAISTCTELKLLNISSNQFVGPIPPLPLKSLQYLSLAENKFTGEIPDFLSGACDTLTGLDLSGNHFYGAVPPFFGSCSLLESLALSSNNFSGELPMDTLLKMRGLKVLDLSFNEFSGELPESLTNLSASLLTLDLSSNNFSGPILPNLCQNPKNTLQELYLQNNGFTGKIPPTLSNCSELVSLHLSFNYLSGTIPSSLGSLSKLRDLKLWLNMLEGEIPQELMYVKTLETLILDFNDLTGEIPSGLSNCTNLNWISLSNNRLTGEIPKWIGRLENLAILKLSNNSFSGNIPAELGDCRSLIWLDLNTNLFNGTIPAAMFKQSGKIAANFIAGKRYVYIKNDGMKKECHGAGNLLEFQGIRSEQLNRLSTRNPCNITSRVYGGHTSPTFDNNGSMMFLDMSYNMLSGYIPKEIGSMPYLFILNLGHNDISGSIPDEVGDLRGLNILDLSSNKLDGRIPQAMSALTMLTEIDLSNNNLSGPIPEMGQFETFPPAKFLNNPGLCGYPLPRCDPSNADGYAHHQRSHGRRPASLAGSVAMGLLFSFVCIFGLILVGREMRKRRRKKEAELEMYAEGHGNSGDRTANNTNWKLTGVKEALSINLAAFEKPLRKLTFADLLQATNGFHNDSLIGSGGFGDVYKAILKDGSAVAIKKLIHVSGQGDREFMAEMETIGKIKHRNLVPLLGYCKVGDERLLVYEFMKYGSLEDVLHDPKKAGVKLNWSTRRKIAIGSARGLAFLHHNCSPHIIHRDMKSSNVLLDENLEARVSDFGMARLMSAMDTHLSVSTLAGTPGYVPPEYYQSFRCSTKGDVYSYGVVLLELLTGKRPTDSPDFGDNNLVGWVKQHAKLRISDVFDPELMKEDPALEIELLQHLKVAVACLDDRAWRRPTMVQVMAMFKEIQAGSGIDSQSTIRSIEDGGFSTIEMVDMSIKEVPEGKL
partner: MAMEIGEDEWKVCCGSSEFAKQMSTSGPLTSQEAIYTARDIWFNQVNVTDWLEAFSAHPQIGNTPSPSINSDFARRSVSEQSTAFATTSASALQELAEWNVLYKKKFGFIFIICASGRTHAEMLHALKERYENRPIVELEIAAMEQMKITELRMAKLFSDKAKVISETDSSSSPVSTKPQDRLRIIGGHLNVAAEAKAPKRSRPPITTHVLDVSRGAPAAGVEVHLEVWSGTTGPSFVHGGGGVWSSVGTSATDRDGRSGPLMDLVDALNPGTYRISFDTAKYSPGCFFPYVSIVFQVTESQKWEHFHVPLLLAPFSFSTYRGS

Variants of B1 are the subject of assay [1]. The following applies: with tthl_arath TTL.
Variants of B1 are the subject of assay [2]. The following applies: with tthl_arath TTL. The source holds these as a separate data set.

As for G1048D, the “effect of a mutation on the interaction” value is reported as “decreasing interaction” in assay [1] and “disrupting interaction” in assay [2].

For A1031T, in assay [2], the “effect of a mutation on the interaction” value was “disrupting interaction”. As to E1078K, the “effect of a mutation on the interaction” value in assay [1] is on record as “decreasing interaction”; in assay [2], “disrupting interaction”.

The values are drawn from IntAct's records for PubMed 15319482.
